Experiment [1] concerns the target Human interleukin 23 (hIL-23) (human) (UniProt Q9NPF7). As to the kind of experiment: SPR, Biacore T200, antibody captured on Protein A chip, IL-23 in flow, 25 °C, 1:1 model.
The target is the same in experiment [2]. As to the kind of experiment: cell-based or functional assay.
Experiment [3] deals with Natural IL-23 (human) (UniProt Q9NPF7). As to the kind of experiment: binding ELISA, antibody coated at 1 µg/ml, IL-23 titrated, anti-His detection.
Chain of Natural IL-23 (human) (Q9NPF7 20-189 limits assumed, chain 1 of 2): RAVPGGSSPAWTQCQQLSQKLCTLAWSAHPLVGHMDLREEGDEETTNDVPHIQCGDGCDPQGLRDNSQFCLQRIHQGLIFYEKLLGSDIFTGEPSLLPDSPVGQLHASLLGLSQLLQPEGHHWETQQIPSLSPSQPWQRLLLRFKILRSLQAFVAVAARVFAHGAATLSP
Chain of Natural IL-23 (human) (chain, as listed by the source limits assumed, chain 2 of 2): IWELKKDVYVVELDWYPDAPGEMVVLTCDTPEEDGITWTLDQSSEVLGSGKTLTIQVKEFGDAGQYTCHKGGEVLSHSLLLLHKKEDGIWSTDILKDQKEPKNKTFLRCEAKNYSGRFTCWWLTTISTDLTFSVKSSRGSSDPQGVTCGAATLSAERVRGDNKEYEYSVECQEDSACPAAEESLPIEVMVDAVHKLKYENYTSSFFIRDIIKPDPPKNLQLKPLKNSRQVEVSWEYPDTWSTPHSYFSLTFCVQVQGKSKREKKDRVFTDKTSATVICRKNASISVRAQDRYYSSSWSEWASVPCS

Chain of Human interleukin 23 (hIL-23) (human) (Q9NPF7 20-189 limits assumed, chain 1 of 2): as the sequence (Q9NPF7 20-189 limits assumed, chain 1 of 2) above
Chain of Human interleukin 23 (hIL-23) (human) (chain, as listed by the source limits assumed, chain 2 of 2): as the sequence (chain, as listed by the source limits assumed, chain 2 of 2) above

B1: Risankizumab (antibody, INN chains, looked up, V domains shown)
VH: QVQLVQSGAEVKKPGSSVKVSCKASGYTFTDQTIHWMRQAPGQGLEWIGYIYPRDDSPKYNENFKGKVTITADKSTSTAYMELSSLRSEDTAVYYCAIPDRSGYAWFIYWGQGTLVTVSS
VL: DIQMTQSPSSLSASVGDRVTITCKASRDVAIAVAWYQQKPGKVPKLLIYWASTRHTGVPSRFSGSGSRTDFTLTISSLQPEDVADYFCHQYSSYPFTFGSGTKLEIKR
Consider B1, for which, in experiment [1], the Kd was 0.052 nM, the koff was determined as 3.7e-05 s⁻¹ and the on-rate (kon) amounted to 706000 M⁻¹ s⁻¹. Also, in experiment [2], the IC50, inhibition of phosphorylation of STAT3 in HEK Blue IL-23 cells induced by IL-23 stood at 3.51 ng/mL; the IC50, inhibition of release of IFN-γ from human NK cells induced by IL-23 is 11.1 ng/mL; the IC50, inhibition of release of IL-17A from mouse spleen cells induced by IL-23 worked out at 8.43 ng/mL. In addition, the half-maximal effective concentration (EC50) in experiment [3] turned out to be 1.8 ng/mL.
